Test results published in PMC6374468 (Nature Communications, 2019).

Target: monomeric gp120 from isolate BaL (HIV-1 clade B, isolate BaL (clone not …, UniProt Q6TAP7, strain))
Assay: ELISA

B1: VRC01 FR3-03 (antibody, V domains shown)
VH: QVQLVQSGGQMKKPGESMRISCRASGYEFIDCTLNWIRLAPGKRPEWMGWLKPRGGAVNYARPLQGRVTMTRQLSQDPDDPDWGTAFLELRSLTVDDTAVYFCTRGKNCDYNWDFEHWGRGTPVIVGG
VL: EIVLTQSPGTLSLSPGETAIISCRTSQYGSLAWYQQRPGQAPRLVIYSGSTRAAGIPDRFSGSRWGPDYNLTISNLESGDFGVYYCQQYEFFGQGTKVQVG
Does B1 bind?
Result: binds
